Test results as given in publication doi:10.1101/2021.02.26.432832.

Molecular target: T1, Ioc4 PWWP domain (Saccharomyces cerevisiae) (UniProt Q04213)
T1 sequence: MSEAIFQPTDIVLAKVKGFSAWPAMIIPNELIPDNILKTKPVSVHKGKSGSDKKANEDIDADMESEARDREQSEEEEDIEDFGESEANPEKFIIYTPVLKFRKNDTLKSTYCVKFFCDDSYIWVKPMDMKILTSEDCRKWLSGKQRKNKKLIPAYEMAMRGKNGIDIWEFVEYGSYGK
Assay: EMSA
Settings: H3K36me3; H3 tail 1-44 ligated to H3T45C; Xenopus laevis histones

In the case of NCP H3K36me3, the binding signal (fold higher affinity vs dsDNA) is reported as 6.
